From US20140079706A1

Legend:
Assay in all cases: cell-based or functional assay
[1] = target: human wildtype CSF-1R (wt CSF-1R), full-length, on cells (human) (UniProt P07333)
[2] = target: human mutant CSF-1R L301S Y969F, full-length, on NIH 3T3 cells (human) (UniProt P07333)
[3] = target: CSF-1R on cynomolgous monocytes (cynomolgous)

| Substance | wtCSF-1R IC30 (cell viability, CellTiterGlo, 3D spheroids) [1] [µg/mL] | % inhibition at 20 µg/ml, mutant CSF-1R cells [2] [%] | Mutant CSF-1R IC30 (cell viability, CellTiterGlo, 3D spheroids) [2] [µg/mL] | wtCSF-1R IC50 (cell viability, CellTiterGlo, 3D spheroids) [1] [µg/mL] | % inhibition (of survival) = (100% - % survival), cynomolgous monocytes, 5 µg/ml antibody [3] [%] | % survival of cynomolgous monocytes at 5 µg/ml antibody (150 ng/ml huCSF-1, CellTiterGlo) [3] [%] | Mutant CSF-1R IC50 (cell viability, CellTiterGlo, 3D spheroids) [2] [µg/mL] |
| --- | --- | --- | --- | --- | --- | --- | --- |
| goat polyclonal anti-CSF-1R antibody ab10676 (abcam) | 14.2 | 0 | > 20 | – | – | – | – |
| Anti CSF-1R SC 2-4A5 (Santa Cruz Biotechnology, US) (antibody) | 16.6 | – | 2.56 | 10 | 69 | 31 | 10 |
